# In IntAct's records for PubMed 19379692:
# B1: SET domain-containing protein 3 (Saccharomyces cerevisiae), P36124 (parent)
# chain: MSVPNSKEQSLLDDASTLLLFSKGKKRAEEASKIGSKTDTIEHDESHEREKKGAIEMAAAALATASTVSLPLKKATEQSAAEAATSTAAKEETENQPQKQPQWPVPDSYIVDPDAGIITCICDLNDDDGFTIQCDHCNRWQHAICYGIKDIGMAPDDYLCNSCDPREVDINLARKIQQERINVKTVEPSSSNNSASNKNNGRDRASSTTISDVGDSFSTDQDNTNHRDKRRKRNPSNNSIDSKNESASVNSSDGLTSMPKKKEHFLSAKDAYGAIYLPLKDNVFKSDLIEPFLNKHMDDNWVIQYPHKTFKSVSIEVKPYADIAYSRTYPGFTKLGVYLKKDCIKGDFIQEILGELDFYKNYLTDPRNHYRIWGTAKRRVIFHSHWPIYIDARLSGNSTRYLRRSCQPNVELVTIKLQDTDNRNDKSSGRKSSRIKFVLRALRDISEDEELYIKWQWDSKHPILKLIKGMTIDSLDDLERYGLINSVETILSNGECGCGNNSKDCYLLKVKRYAQSLYKSVKSRGKMNNRYKLNEILNQYNCKKRREPPILHRLEEKAQNTIERAPILLNNFYRQKFLNRNNGPKIPQKNTIDSTNNPDDIAKPFKFALFAQHSSNISVPKKNETSEKPLIITKSTDYDESHITNIEELPIPVLLPINKTSRQTANDVEESQSKNEHKLSRTPSLSNFNKELSKEAQHSQAKTKEIMTEASVNSRRESTPESIMHLSDFSSSQLHSKKKLSFADYRKKLLK
# Variants of: B1
# Conditions: with h4_yeast HHF1, P02309
row,Variant,effect of a mutation on the interaction
1,W140A,decreasing interaction
